From article doi:10.1101/2022.05.03.490496

Target: amino-terminal ∼1400 amino-acid segment of human MUC2 (human)
Assay: western blot of disulfide-bonded dimers

stoichiometry N: 2
Substance: amino-terminal ∼1400 amino-acid segment of human MUC2 (domain or fragment)
